Test results reported in patent publication US20200121783A1.

Molecular target: eOD-GT8 60 mer (Aquifex aeolicus; HIV-1)
Test: ELISA, antibody titration

Substance	EC50 (read off the curve)
VRC-PG04g1 (v-gene germline revertant of VRC-PG04) (antibody)	0.5 µg/mL
VRC01 (antibody)	0.2 µg/mL
